Measurements taken from IntAct's records for PubMed 29039417.

B1: Protein PTHB1 (Homo sapiens), Q3SYG4 (parent)
chain: MSLFKARDWWSTILGDKEEFDQGCLCLANVDNSGNGQDKIIVGSFMGYLRIFSPHPAKTGDGAQAEDLLLEVDLRDPVLQVEVGKFVSGTEMLHLAVLHSRKLCVYSVSGTLGNVEHGNQCQMKLMYEHNLQRTACNMTYGSFGGVKGRDLICIQSMDGMLMVFEQESYAFGRFLPGFLLPGPLAYSSRTDSFLTVSSCQQVESYKYQVLAFATDADKRQETEQQKLGSGKRLVVDWTLNIGEQALDICIVSFNQSASSVFVLGERNFFCLKDNGQIRFMKKLDWSPSCFLPYCSVSEGTINTLIGNHNNMLHIYQDVTLKWATQLPHIPVAVRVGCLHDLKGVIVTLSDDGHLQCSYLGTDPSLFQAPNVQSRELNYDELDVEMKELQKIIKDVNKSQGVWPMTEREDDLNVSVVVSPNFDSVSQATDVEVGTDLVPSVTVKVTLQNRVILQKAKLSVYVQPPLELTCDQFTFEFMTPDLTRTVSFSVYLKRSYTPSELEGNAVVSYSRPTDRNPDGIPRVIQCKFRLPLKLICLPGQPSKTASHKITIDTNKSPVSLLSLFPGFASQSDDDQVNVMGFHFLGGARITVLASKTSQRYRIQSEQFEDLWLITNELILRLQEYFEKQGVKDFACSFSGSIPLQEYFELIDHHFELRINGEKLEELLSERAVQFRAIQRRLLARFKDKTPAPLQHLDTLLDGTYKQVIALADAVEENQGNLFQSFTRLKSATHLVILLIALWQKLSADQVAILEAAFLPLQEDTQELGWEETVDAAISHLLKTCLSKSSKEQALNLNSQLNIPKDTSQLKKHITLLCDRLSKGGRLCLSTDAAAPQTMVMPGGCTTIPESDLEERSVEQDSTELFTNHRHLTAETPRPEVSPLQGVSE
partner: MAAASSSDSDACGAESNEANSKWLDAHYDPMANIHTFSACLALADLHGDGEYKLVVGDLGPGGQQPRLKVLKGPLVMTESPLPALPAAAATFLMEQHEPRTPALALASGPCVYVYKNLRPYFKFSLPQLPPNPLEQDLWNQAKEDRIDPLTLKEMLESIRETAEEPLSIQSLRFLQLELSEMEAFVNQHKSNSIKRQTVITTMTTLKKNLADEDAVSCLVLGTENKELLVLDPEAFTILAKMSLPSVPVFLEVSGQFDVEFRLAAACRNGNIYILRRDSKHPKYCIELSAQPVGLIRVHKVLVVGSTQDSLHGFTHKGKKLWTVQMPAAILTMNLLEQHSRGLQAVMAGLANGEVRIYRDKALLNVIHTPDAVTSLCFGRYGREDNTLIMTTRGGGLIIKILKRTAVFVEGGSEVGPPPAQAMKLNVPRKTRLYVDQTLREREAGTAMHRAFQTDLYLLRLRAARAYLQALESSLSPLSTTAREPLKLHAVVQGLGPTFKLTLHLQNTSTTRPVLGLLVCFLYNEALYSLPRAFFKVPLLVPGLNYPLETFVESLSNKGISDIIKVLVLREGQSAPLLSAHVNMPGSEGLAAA

Variants of: B1
Conditions: with bbs1_human BBS1, Q8NFJ9

| Variant | effect of a mutation on the interaction |
| --- | --- |
| Q858A | with no effect |
| A712K | with no effect |
| E654A | with no effect |
| I846A | with no effect |
| Y645K | with no effect |
| S828K | with no effect |
| I612E | with no effect |
| P564K | with no effect |
| H694K | with no effect |
| Q705M | disrupting interaction strength |
| N515E | with no effect |
| N796E | with no effect |
| L642A | with no effect |
| A682E | with no effect |
| Q748K | with no effect |
| T482A | with no effect |
| V415E | with no effect |
| V450A | with no effect |
| T813A | with no effect |
| T813K | with no effect |
| D686K | with no effect |
| G823K | with no effect |
| A754G | disrupting interaction strength |
| K554S | disrupting interaction strength |
| D410E | with no effect |
| I649A | with no effect |

| Variant | effect of a mutation on the interaction |
| --- | --- |
| E644A | with no effect |
| S541A | with no effect |
| K687E | with no effect |
| L851K | with no effect |
| L851A | with no effect |
| R600G | disrupting interaction strength |
| N614K | with no effect |
| S418K | with no effect |
| K685A | with no effect |
| E501K | with no effect |
| V885A | with no effect |
| F653K | with no effect |
| C843K | with no effect |
| L620K | with no effect |
| A775E | with no effect |
| E753A | with no effect |
| D711K | with no effect |
| H778K | with no effect |
| F721A | with no effect |
| Q605E | with no effect |
| Q605K | with no effect |
| T595E | with no effect |
| F673A | with no effect |
| G718S | disrupting interaction strength |
| R619C | disrupting interaction strength |
| Q627A | with no effect |

| Variant | effect of a mutation on the interaction |
| --- | --- |
| K542A | with no effect |
| E857K | with no effect |
| H651A | with no effect |
| Q569E | with no effect |
| T613I | disrupting interaction strength |
| L457A | with no effect |
| P497E | with no effect |
| L709K | with no effect |
| L709E | with no effect |
| T552E | with no effect |
| S568K | with no effect |
| M837K | with no effect |
| R674K | with no effect |
| V557A | with no effect |
| A544K | with no effect |
| L744A | with no effect |
| K743A | with no effect |
| T468K | with no effect |
| Q798K | with no effect |
| T697C | disrupting interaction strength |
| T697E | with no effect |
| S439A | with no effect |
| R854K | with no effect |
| R854A | with no effect |

Other lines, results leading:

| effect of a mutation on the interaction | Variant |
| --- | --- |
| with no effect | D572A |
| with no effect | P438A |
| with no effect | Q462E |
| with no effect | A712E |
| with no effect | G822A |
| disrupting interaction strength | W741S |
| with no effect | L699A |
| with no effect | C783E |
| with no effect | E790A |
| disrupting interaction strength | H694Y |
| with no effect | S820E |
| disrupting interaction strength | L695M |
| with no effect | T512K |
| with no effect | L642E |
| with no effect | F563E |
| with no effect | E607K |
| with no effect | G579A |
| with no effect | V459K |
| disrupting interaction strength | V459E |
| with no effect | V459A |
| with no effect | T543A |
| with no effect | L757E |
| with no effect | L757K |
| disrupting interaction strength | E604V |
| with no effect | E878K |
| with no effect | N412K |

| effect of a mutation on the interaction | Variant |
| --- | --- |
| with no effect | V415A |
| with no effect | V575A |
| with no effect | R528K |
| with no effect | R528A |
| with no effect | V734K |
| with no effect | L808A |
| with no effect | T484E |
| with no effect | D410A |
| with no effect | N448E |
| with no effect | Y599K |
| with no effect | L655E |
| with no effect | L481A |
| with no effect | L481E |
| with no effect | A504K |
| with no effect | S541K |
| with no effect | E769A |
| with no effect | V416K |
| with no effect | S637E |
| with no effect | K810A |
| with no effect | Y508E |
| with no effect | L740E |
| with no effect | Q539E |
| with no effect | V856K |
| with no effect | T434E |
| with no effect | D422E |
| disrupting interaction strength | K809E |

| effect of a mutation on the interaction | Variant |
| --- | --- |
| with no effect | A670E |
| with no effect | Q453E |
| with no effect | S745A |
| with no effect | I519E |
| with no effect | N553A |
| with no effect | I776E |
| with no effect | D850A |
| with no effect | Q471E |
| with no effect | I801A |
| with no effect | I617K |
| disrupting interaction strength | C469Y |
| with no effect | C469A |
| with no effect | I707K |
| with no effect | S596K |
| with no effect | Q605A |
| with no effect | F487A |
| with no effect | M477E |
| with no effect | L815K |
| with no effect | L815E |
| with no effect | D631A |
| with no effect | Q621K |
| with no effect | L618A |
| with no effect | V444K |
| with no effect | D817K |
| with no effect | Q835A |
| with no effect | R598E |

| effect of a mutation on the interaction | Variant |
| --- | --- |
| with no effect | L799K |
| with no effect | L799E |
| with no effect | L467E |
| with no effect | L467A |
| with no effect | Q447E |
| with no effect | V437A |
| with no effect | Q693A |
| with no effect | S593E |
| disrupting interaction strength | V506I |
| with no effect | T552K |
| with no effect | G659A |
| with no effect | T549K |
| disrupting interaction strength | P802T |
| with no effect | S860K |
| with no effect | Q602E |
| with no effect | K728E |
| with no effect | D470A |
| with no effect | T405K |
| with no effect | L591E |
| with no effect | S787E |
| with no effect | E715A |
| with no effect | H581A |
| with no effect | G584A |
| with no effect | T829K |
| with no effect | T829A |
